Results published in publication doi:10.1101/2023.03.09.531992.

Key:
[1] = molecular target: clientized GST-S tail construct Thr1273Asp (SARS-CoV-2 S, Leu1244 to Thr1273) (SARS-CoV-2) (UniProt P0DTC2); test: pull-down
[2] = molecular target: clientized GST-S tail construct Thr1273Glu (SARS-CoV-2 S, Leu1244 to Thr1273) (SARS-CoV-2) (UniProt P0DTC2); test: pull-down

“endogenous coatomer complex (COPI), mouse liver cytosol, Q8CIE6;Q9JIF7;O55029;Q9QZE5;Q5XJY5;O89079;P61924” gave a fold binding against the Lys-x-Lys-x-xCT dibasic mutant [1] of 2 fold, a fold higher affinity than the wild-type GST-S tail construct [1] of 17 fold and a fold binding against the Lys-x-Lys-x-xCT dibasic mutant [2] of 2 fold. The fold higher affinity than the wild-type GST-S tail construct [2] was 17 fold.
